The results in this text go back to US20240219403A1, “METHODS FOR INHIBITING KRAS ONCOPROTEIN THROUGH ENHANCED GTPASE ACTIVITY” (Memorial Sloan-Kettering Cancer Center, priority 2021, published 2024).

B1: RGS4: regulator of G protein signaling 4, RGS family member (protein)
chain: MCKGLAGLPASCLRSAKDMKHRLGFLLQKSDSCEHNSSHNKKDKVVICQRVSQEEVKKWAESLENLISHECGLAAFKAFLKSEYSEENIDFWISCEEYKKIKSPSKLSPKAKKIYNEFISVQATKEVNLDSCTREETSRNMLEPTITCFDEAQKKIFNLMEKDSYRRFLKSRFYLDLVNPSSCGAEKQKGAKSSADCASLVPQCA
B2: NF1: canonical RAS-GAP; recombinant NF1 GAP related domain (1198-1530aa) (protein)
chain: ETVLADRFERLVELVTMMGDQGELPIAMALANVVPCSQWDELARVLVTLFDSRHLLYQLLWNMFSKEVELADSMQTLFRGNSLASKIMTFCFKVYGATYLQKLLDPLLRIVITSSDWQHVSFEVDPTRLEPSESLEENQRNLLQMTEKFFHAIISSSSEFPPQLRSVCHCLYQATCHSLLNKATVKEKKENKKSVVSQRFPQNSIGAVGSAMFLRFINPAIVSPYEAGILDKKPPPRIERGLKLMSKILQSIANHVLFTKEEHMRPFNDFVKSNFDAARRFFLDIASDCPTSDAVNHSLSFISDGNVLALHRLLWNNQEKIGQYLSSNRDHKA
modifications: left off: small tags and cut ends
B3: RASA1: canonical RAS-GAP (protein)
chain: MEKIMPEEEYSEFKELILQKELHVVYALSHVCGQDRTLLASILLRIFLHEKLESLLLCTLNDREISMEDEATTLFRATTLASTLMEQYMKATATQFVHHALKDSILKIMESKQSCELSPSKLEKNEDVNTNLTHLLNILSELVEKIFMASEILPPTLRYIYGCLQKSVQHKWPTNTTMRTRVVSGFVFLRLICPAILNPRMFNIISDSPSPIAARTLILVAKSVQNLANLVEFGAKEPYMEGVNPFIKSNKHRMIMFLDELGNVPELPDTTEHSRTDLSRDLAALHEICVAHSDELRTLSNERGAQQHVLKKLLAITELLQQKQNQYTKTNDVR

For this assay, the target named is T1, KRAS^G12C (Homo sapiens, UniProt P01116, G12C).
T1 construct: endogenous in cells; host or cells: H358, H2122, H2030, SW1573 (KRAS G12C-mutant lung cancer lines, ATCC)
Briefly: GTPase assays of purified GTP-loaded KRAS^G12C incubated with GAP proteins (γ-phosphate, α-phosphate, continuous phosphate release). Particulars: purified proteins. The class given is biochemical. How it is done:
GTP[γ^32P] hydrolysis assay. KRAS proteins (0.5 μg) were reacted with 0.04 μM GTP[γ^32P] (6000 Ci/mmol; PerkinElmer Life Sciences) in 100 μL loading buffer (50 mM HEPES, pH 7.5, 50 mM NaCl, 1 mM DTT, 0.1 mM EGTA, 10 mM EDTA, and 1 mg/mL BSA) for 10 min at 30° C. (5, 40). Loading reactions were stopped by placing on ice and adding MgCl2 to a final concentration of 20 mM. The GTPase assays were performed at 30° C. in 100 μL mixtures containing 20 nM of loaded KRAS and either hydrolysis buffer (25 mM HEPES pH 7.5, 50 mM NaCl, 1 mM DTT, 1 mM MgCl2 and 1 mg/mL BSA) alone, or in combination with WCE or purified RGS3 (0.08-0.4 μg/μL). Equimolar comparisons of NF1, RASA1 and RGS3 were carried out using the continuous hydrolysis assay (see below). Reactions were stopped at the indicated time by filtering through 0.45-μm nitrocellulose membrane filters. The filters were washed 3 times with 0.2 mL of ice-cold hydrolysis buffer, air dried, and processed by autoradiography. Reaction rates were determined by fitting an exponential curve to the data, which was normalized to the baseline value. For the determination of protein stability, the hydrolysis reactions were stopped by boiling at 100° C. for 10 min in Laemmli buffer. The samples were then subjected to SDS-PAGE followed by Coomasie staining (CBB) or immunoblotting with a His-specific antibody.
GTP[α^32P] hydrolysis assay. KRAS proteins were loaded with GTP[α^32P] (3000 Ci/mmol; PerkinElmer Life Sciences) and subjected to the hydrolysis reaction as indicated above. Upon completion of the hydrolysis reaction and immobilization of KRAS-nucleotide complexes on nitrocellulose membranes, the nucleotides were eluted by incubating with elution buffer (50 mM HEPES pH 7.5, 50 mM NaCl, 1 mM DTT, 0.1 mM EGTA, 0.1% SDS, 10 mM EDTA, 1 mM GTP and 1 mM GDP) for 3 min at 85° C. […]
Continuous hydrolysis assay (two-step detection of inorganic phosphate). […] The reaction was monitored by reading the absorbance at 360 nm every 10 to 20 s for ˜16-60 min at room temperature. […]
For B1, the “effect on GTP-hydrolysis by KRAS^G12C” value is “enhance the KRAS GTPase activity”.

As to B2, the “effect on GTP-hydrolysis by KRAS^G12C” value is listed as “some activity”. To B3 belongs “no measurable effect”.
